Publication doi:10.1101/851261 (2019)
Positions of bridges follow the written chain, without caps; N, C: chain ends. No end group written: not given here.

B1: AjKiss1b (peptide)
chain: SAVKNKNKSRARPPLLPF-NH2
B2: AjKiss1a (peptide)
chain: AGSLDCLEASCEDVERRGRQPNRNAHYRTLPF-NH2
modifications: disulfide 6-11 (inferred)

Key:
AjKissR2 = target: T1, AjKissR2 (Apostichopus japonicus); experiment: FACS; competition with 1.0 uM FITC-AjKiss1a
T1 chain: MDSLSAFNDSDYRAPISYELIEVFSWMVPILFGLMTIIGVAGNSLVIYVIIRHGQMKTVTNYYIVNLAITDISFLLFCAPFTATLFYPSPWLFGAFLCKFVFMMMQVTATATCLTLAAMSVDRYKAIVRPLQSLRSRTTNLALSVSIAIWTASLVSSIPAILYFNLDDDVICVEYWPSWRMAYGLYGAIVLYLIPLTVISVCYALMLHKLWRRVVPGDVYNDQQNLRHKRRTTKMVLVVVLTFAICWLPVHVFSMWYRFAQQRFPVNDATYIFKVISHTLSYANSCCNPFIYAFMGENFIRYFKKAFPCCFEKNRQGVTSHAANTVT

AjKissR1 = target: T2, AjKissR1 (Apostichopus japonicus); experiment: FACS; competition with 1.0 uM FITC-AjKiss1a
T2 chain: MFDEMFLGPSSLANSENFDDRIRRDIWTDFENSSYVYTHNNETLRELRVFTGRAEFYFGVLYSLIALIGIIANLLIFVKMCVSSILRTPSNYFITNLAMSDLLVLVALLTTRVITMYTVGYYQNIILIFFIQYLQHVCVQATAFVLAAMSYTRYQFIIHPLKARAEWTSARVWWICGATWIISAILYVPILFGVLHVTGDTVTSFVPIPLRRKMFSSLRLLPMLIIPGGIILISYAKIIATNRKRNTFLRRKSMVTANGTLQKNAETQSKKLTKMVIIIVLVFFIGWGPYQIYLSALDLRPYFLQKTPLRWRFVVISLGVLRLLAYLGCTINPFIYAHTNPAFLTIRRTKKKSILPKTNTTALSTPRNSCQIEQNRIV

Binder	IC50 (AjKissR2)	IC50 (AjKissR1)
B1	1250 nM	–
B2	–	568 nM
